Laboratory results from paper PMC8807474, “Single-Molecule Fluorescence Imaging Reveals GABAB Receptor Aggregation State Changes” (Frontiers in Chemistry, 2021).

Key:
O75899 = assay: single-molecule photobleaching step counting (TIRFM); GBR1-EGFP co-expressed with unlabeled GBR2 in HEK293 cells; EGFP spots on the cell membrane; one bleaching step = one heterodimer, two steps = tetramer of two heterodimers (heterodimers to tetramer); resting state; also after 1 mM GABA …; conditions: other: single-molecule photobleaching step counting (TIRFM)
[1] = target: the molecule itself; assay: single-molecule photobleaching step counting (TIRFM); GBR2-EGFP expressed alone at low expression level in HEK293 cells; EGFP spots on the cell membrane; monomer to homodimer

Molecule	percent of spots with one-step bleaching (single heterodimer) (O75899)	percent of spots with two-step bleaching (tetramer of two heterodimers) (O75899)	stoichiometry N [1]
GABAB receptor heterodimer GBR1-EGFP/GBR2	about 50% population	about 30% receptors	–
GBR2-EGFP (receptor, UniProt O75899 42-941, looked up, GABAB receptor subunit 2 (GBR2, GABAB2); source: HEK293, transfected, expressed alone at low expression level, on cells) WARGAPRPPPSSPPLSIMGLMPLTKEVAKGSIGRGVLPAVELAIEQIRNESLLRPYFLDLRLYDTECDNAKGLKAFYDAIKYGPNHLMVFGGVCPSVTSIIAESLQGWNLVQLSFAATTPVLADKKKYPYFFRTVPSDNAVNPAILKLLKHYQWKRVGTLTQDVQRFSEVRNDLTGVLYGEDIEISDTESFSNDPCTSVKKLKGNDVRIILGQFDQNMAAKVFCCAYEENMYGSKYQWIIPGWYEPSWWEQVHTEANSSRCLRKNLLAAMEGYIGVDFEPLSSKQIKTISGKTPQQYEREYNNKRSGVGPSKFHGYAYDGIWVIAKTLQRAMETLHASSRHQRIQDFNYTDHTLGRIILNAMNETNFFGVTGQVVFRNGERMGTIKFTQFQDSREVKVGEYNAVADTLEIINDTIRFQGSEPPKDKTIILEQLRKISLPLYSILSALTILGMIMASAFLFFNIKNRNQKLIKMSSPYMNNLIILGGMLSYASIFLFGLDGSFVSEKTFETLCTVRTWILTVGYTTAFGAMFAKTWRVHAIFKNVKMKKKIIKDQKLLVIVGGMLLIDLCILICWQAVDPLRRTVEKYSMEPDPAGRDISIRPLLEHCENTHMTIWLGIVYAYKGLLMLFGCFLAWETRNVSIPALNDSKYIGMSVYNVGIMCIIGAAVSFLTRDQPNVQFCIVALVIIFCSTITLCLVFVPKLITLRTNPDAATQNRRFQFTQNQKKEDSKTSTSVTSVNQASTSRLEGLQSENHRLRMKITELDKDLEEVTMQLQDTPEKTTYIKQNHYQELNDILNLGNFTESTDGGKAILKNHLDQNPQLQWNTTEPSRTCKDPIEDINSPEHIQRRLSLQLPILHHAYLPSIGGVDASCVSPCVSPTASPRHRHVPPSFRVMVSGL	–	–	2
